Paper PMC11667159 (The Journal of Biological Chemistry, 2024)

T1: VC1 domain of human RAGE (receptor for advanced glycation end products), biotinylated (human, UniProt Q15109 23-226, biotin (EZ-Link Sulfo-NHS-Biotin))
T1 chain: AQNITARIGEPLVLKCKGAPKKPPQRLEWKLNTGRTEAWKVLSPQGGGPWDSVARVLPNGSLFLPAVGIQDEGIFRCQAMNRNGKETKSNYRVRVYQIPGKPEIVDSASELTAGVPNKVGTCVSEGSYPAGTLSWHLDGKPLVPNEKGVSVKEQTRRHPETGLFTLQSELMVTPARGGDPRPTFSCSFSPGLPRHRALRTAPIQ


target: dimeric S100B (human, recombinant) (Homo sapiens, UniProt P04271); assay: not given; conditions: not given

| binding result | Binder |
| --- | --- |
| binds | Nb15 (VHH) VHH: QVQLVESGGGLVQAGGSLRLSCVASGILFSNNPMAWYRGAPGKQRELVARIWSGGRTIYGDSLKGRVTISRDNAKNTVYLQMNSLQPEDTAVYYCNSPYTNGWGQGTQVTVSS |
| binds | Nb14 (VHH) VHH: QVQLVESGGGLVQAGDSLRLSCAASARTFSIHAMGWFRQAPGKEREFVAAIGWTGGSPDYSDSAKGRFAISRDNAKNTVFLQMNSLKPEDTAVYYCAFHRAGSYDSTTSYDYWGQGTQVTVSS |
| binds | Nb28 (VHH) VHH: QVQLVESGGGLVQTGGSLNLSCAPFGTVLSDNDVGWYRQAPGSQRELVAEVDVRGGTNYADSVKGRFTISRDSAKKITFLQMNSLKSEDTAVYYCASDYGLGLLVGLPEYRGQGTQVTVSS |
| binds | Nb21 (VHH) VHH: QVQLVESGGGLVQAGDSLRLSCAASGRTFSNYGIGWFRQAPGKEREFVARVAWSTAITKYADAVKGRFTISRDNAKNMVYLQMNSLKPEDTAVYYCAAGKYGTAWITISGYDFWGQGTQVTVSS |
| binds | Nb25 (VHH) VHH: QVQLVESGGGLVQPGGSLRLSCTVSGIILGSRAMGWYRQTPGKQREFVATISTSGGTTNYADSVKGRFTISRDNAKNTVYLQMNSLKPEDTAIYYCNTLSQVLADRGWGQGTQVTVSS |
| binds | Nb26 (VHH) VHH: QVQLVESGGGLVRPGGSLRLSCTVSGIMFGSRAMGWYRQTPGKQRDFVATISTSGGTTNYADSVKGRFTISRDSAKNTVYLQMNSLKPEDTAVYYCNTVSAVLLDRGWGQGTQVTVSS |
| binds | Nb19 (VHH) VHH: QVQLVESGGGLVQAGGSLRLSCAASGRTFSSYKMGWFRQAPGKEREFVAAFSWTGLNTNYADSVKGRFTISRDNAKSTVYLQMNSLKPEDTAVYYCAAGLGRTVIAGVDYWGQGTQVTVSS |
| binds | Nb27 (VHH) VHH: QVQLVESGGGLVQAGGSLKLSCAAPGWTVSISYMGWFRQAQGKEREFVGAMSWSDDRISYADSVKGRFTISRDNAKTTVFLQMTSLKPEDTAVYYCAVRRKWSESYDYWGQGTQVTVSS |
| binds | Nb20 (VHH) VHH: QVQLVESGGGLVQAGASLRLSCAASGRTFSSNYMGWFRQAPGKEREFVGAISWTSGSTSYADSVKGRFTISRDKAKNTVDLQMNSLNPDDTAVYYCAAGPSHRLWFSGRTLATYYDYWGQGTQVTVSS |
| binds | Nb16 (VHH) VHH: QVQLVESGGGLVQAGGSLRLSCAASGRTVSSKAMGWYRQAPGKQRELVASISTSGSTTVYADSVKGRFTISRDNAKATVYLRMNMLKPEDTAVYYCNYLVGPIDWGQGTQVTVSS |
| binds | Nb17 (VHH) VHH: QVQLVESGGGLVQAGGSLRLSCAASGRTVSSKAMGWYRQAPGKQRELVASISTSGSTTNYADSVKGRFTISRDNAEAPVYLQMNMLKPGDTAVYYCNYLVGPADWGQGTQVTVSS |
| binds | Nb24 (VHH) VHH: QVQLVESGGGLVQDGGSLRLSCAASGLTFSSLPMGWFRQAPGKEREFVAAMNWGEISTYYADSVKGRFTISRDNGKKTVYLQMNSLKPEDTAVYTCAADLRYSNLKYSRAGYWGQGTQVTVSS |
| binds | Nb22 (VHH) VHH: QVQLVESGGGLVQPGGSLRLSCAASGTSFSTNVMGWYRQAPGKQRELVARILGGSSTYYADSVKGRFTISRDNDKNTLYLQMNSLKPEDTAVYYCTAGFGPGYWGQGTQVTVSS |
| binds | Nb23 (VHH) VHH: QVQLVESGGGLVQPGGSLRLSCAASGTSFSTNVMGWYRQAPGKQRELVARMLGGSSTYYADSVKGRFTISRDNAKNTVYLQMNSLKPEDTAVYYCAAGFGPGYWGQGTQVTVSS |

target: tetrameric S100B (human, recombinant) (human, UniProt P04271); assay: not given; conditions: not given

| binding result | Binder |
| --- | --- |
| binds | Nb2 (VHH) VHH: QVQLVESGGGWVQAGGSLRLSCTASGSGFGIFAINWFRQAPGKERELVASLSSIGSPKYAESVKGRFTISRDNAKNTVYLQMNSLKPEDTAVYYCNYLNRWGQGTQVTVSS |
| binds | Nb13 (VHH) VHH: QVQLVESGGGLVQPGGSLMLSCAASGFDFATYPMSWVRQAPGKEPEWIASIFPNGVTQSCADSVLGRFTISRDNTKNTLFLEMDRLKLADTAVYYCSKGGAAQSMFDDYWGQGTQVTVSS |
| binds | Nb9 (VHH) VHH: QVQLVESGGGLVQAGESLRLSCAASGAVFRIFAVNWWRQAPGKQRELVATITSAGDTKYHDSVKGRFTISRDNAKNTVALQMNNLKPEDTAVYQCNVLKYWGQGTQVTVSS |
| binds | Nb10 (VHH) VHH: QVQLVESGGGLVQAGESLRLSCAASGAVFRIFAVNWWRQAPGKQRELVATITSAGDTKYHDSVKGRFTISRDIAKNTVALQMNNLKPEDTAVYQCNVLKYWGQGTQVTVSS |
| binds | Nb8 (VHH) VHH: QVQLVESGGGLVQAGGSLRLACVTSGNIFSISFMRWYRQAPGKQRELVATITSGDRTTYADSVKGRFTISRDNAKNTVYLQMNSLEPEDTAVYYCDINGLRYAGIRSWGQGTQVTVSS |
| binds | Nb5 (VHH) VHH: QVQLVESGGGLVQAGGSQRLSCTASGRIFSINDMGWYRQAPGDQRELVAVITSGGATNYTDSVKGRFTISRDDAKNTVYLQMNSLKPEDTAVYYCNADLRTSLKWPPVFHRYWGQGTQVTVSS |
| binds | Nb3 (VHH) VHH: QVQLVESGGGLVQAGRSLRLSCAASGRSFSIFAVNWWRQAPGNQRELVASITGGGSIRYADSVKGRFTISRDNAENTVYLQMNSLKPEDTAVYYCNTLNFWGQGTQVTVSS |
| binds | Nb4 (VHH) VHH: QVQLVESGGGLVQAGRSLRLSCAASGRSFSIFGVNWFRQAPENQRELVASITGGGSIRYADSVTGRFTISRDNAENTVYLQMNSLKPEDTAVYYCNILNFWGQGTQVTVSS |
| binds | Nb11 (VHH) VHH: QVQLVESGGGLVQAGGSLRLSCAASASIGIFTVRWWRQAPGKQRALEQRELVAGISGGGTTNFADSVKGRFTISRDNDKKMVYLEMNNLKPEDTAVYYCNYLNSWGQGTQVTVSS |
| binds | Nb6 (VHH) VHH: QVQLVESGGGLVQAGGSLRLSCAASGNILRLNAMAWYRQAPGKQRELVAYITYKGPTNYAESVKGRFTISRDMAKNTVYLQMNSLKPEDTAAYYCNADYIRTPGPFWGQGTQVTVSS |
| binds | Nb7 (VHH) VHH: QVQLVESGGGLVQAGGSLRLSCAASGNILRLNAMAWYRQAPGKQRELVADNTFKGPTNYADSVKGRFTISRDMAKNTVYLQMNSLKPEDTAAYYCNADYIRTPGHFWGQGTQVTVSS |

Target: T1, VC1 domain of human RAGE (receptor for …)
Assay: BLI; in the presence of twofold excess Nb1
Conditions: not given

| Kd [nM] | Binder |
| --- | --- |
| 89 | tetrameric S100B (human, recombinant) (natural protein, S100B, human, isolated as the tetramer (association of two homodimers); also called S100B-4mer; S100B tetramer; source: E. coli (BL21(DE3) E. Cloni EXPRESS), purified) MSELEKAMVALIDVFHQYSGREGDKHKLKKSELKELINNELSHFLEEIKEQEVVDKVMETLDNDGDGECDFQEFMAFVAMVTTACHEFFEHE |

Target: T1, VC1 domain of human RAGE (receptor for …)
Assay: BLI; in the presence of twofold excess Nb18
Conditions: not given

| Kd [nM] | Binder |
| --- | --- |
| 70 | tetrameric S100B (human, recombinant) (natural protein, S100B, human, isolated as the tetramer (association of two homodimers); also called S100B-4mer; S100B tetramer; source: E. coli (BL21(DE3) E. Cloni EXPRESS), purified) MSELEKAMVALIDVFHQYSGREGDKHKLKKSELKELINNELSHFLEEIKEQEVVDKVMETLDNDGDGECDFQEFMAFVAMVTTACHEFFEHE |

target: anti-S100B nanobody Nb12 (llama); assay: BLI; Nbs (20 μg/ml) loaded on Ni-NTA biosensor; S100B dimer or tetramer 25-250 nM in solution; 25 °C; 50 mM Tris-HCl pH 7.4, 150 mM NaCl; global 1:1 fit; conditions: not given
Sequence (heavy, as listed by the source): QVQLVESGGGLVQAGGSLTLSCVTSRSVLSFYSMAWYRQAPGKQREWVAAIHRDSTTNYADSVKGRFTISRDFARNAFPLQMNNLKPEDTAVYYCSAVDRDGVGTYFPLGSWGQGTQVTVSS

| Kd [nM] | Binder |
| --- | --- |
| 4000 | dimeric S100B (human, recombinant) (natural protein) MSELEKAMVALIDVFHQYSGREGDKHKLKKSELKELINNELSHFLEEIKEQEVVDKVMETLDNDGDGECDFQEFMAFVAMVTTACHEFFEHE |
| 800 | tetrameric S100B (human, recombinant) (natural protein, S100B, human, isolated as the tetramer (association of two homodimers); also called S100B-4mer; S100B tetramer; source: E. coli (BL21(DE3) E. Cloni EXPRESS), purified) MSELEKAMVALIDVFHQYSGREGDKHKLKKSELKELINNELSHFLEEIKEQEVVDKVMETLDNDGDGECDFQEFMAFVAMVTTACHEFFEHE |

target: T2, VC1 domain of human RAGE (receptor for advanced glycation end products), biotinylated (human, UniProt Q15109 23-226, biotin (EZ-Link Sulfo-NHS-Biotin)); assay: BLI; biotinylated RAGE-VC1 (25 μg/ml) loaded on streptavidin biosensor; S100B tetramer 50-750 nM in solution (controls: Nbs alone); 25 °C; PBS, 0.1% BSA, 0.05% Tween-20, 1.1 mM CaCl2; global 1:1 fit; conditions: both partners purified
T2 construct: RAGE, human, V and C1 immunoglobulin-like domains; also called RAGE-VC1; VC1 RAGE; source: E. coli Rosetta-gami B (DE3), purified

| Kd [nM] | Binder |
| --- | --- |
| ~29 | tetrameric S100B (human, recombinant) (natural protein, S100B, human, isolated as the tetramer (association of two homodimers); also called S100B-4mer; S100B tetramer; source: E. coli (BL21(DE3) E. Cloni EXPRESS), purified) MSELEKAMVALIDVFHQYSGREGDKHKLKKSELKELINNELSHFLEEIKEQEVVDKVMETLDNDGDGECDFQEFMAFVAMVTTACHEFFEHE |

target: T2, VC1 domain of human RAGE (receptor for …); assay: BLI; competition: biotinylated RAGE-VC1 on streptavidin biosensor; S100B tetramer 50-750 nM previously incubated with a twofold excess of Nb; 25 °C; PBS, 0.1% BSA, 0.05% Tween-20, 1.1 mM CaCl2; global 1:1 fit; conditions: both partners purified

| fold increase of KD after incubation with Nb1, against S100B-4mer alone [fold] | fold increase of KD after incubation with Nb18, against S100B-4mer alone [fold] | Binder |
| --- | --- | --- |
| 3 | 2.4 | tetrameric S100B (human, recombinant) (natural protein, S100B, human, isolated as the tetramer (association of two homodimers); also called S100B-4mer; S100B tetramer; source: E. coli (BL21(DE3) E. Cloni EXPRESS), purified) MSELEKAMVALIDVFHQYSGREGDKHKLKKSELKELINNELSHFLEEIKEQEVVDKVMETLDNDGDGECDFQEFMAFVAMVTTACHEFFEHE |
